“Also recorded” adds a separate entry of the source.
How the values were obtained:
[1] = Isothermal titration calorimetry (ITC) of CfAvr4 variants with chitin hexasaccharide; format: binding; conditions: ITC; for effect of the mutation on binding to (GlcNAc)6: compared with WT-CfAvr4; for increase in the Kd relative to WT-CfAvr4: (GlcNAc)6
Method: A stock solution of the monomer of N-acetylglucosamine was prepared by dissolving the dry powder in a buffer containing 10 mM Bis-Tris, pH 6.5, 100 mM NaCl to a concentration of 0.100 g/L using analytic techniques. Standard solution of 0, 0.010, 0.025, 0.050, 0.075 g/L were prepared by serial dilutions. Using glass test tubes and pipets, 100 μL of each standard was mixed with 300μL of concentrated sulfuric acid and vortexed for 10 sec to mix. Solutions were incubated at RT for 10 min and then placed on ice to stop the reaction. […] Analytically prepared solution of the di- and tri-saccharide scaled linearly to the calibration curve. To determine the concentration of the chitin hexasaccharide solutions used in ITC, the solutions were diluted into the dynamic range of the calibration curve (S12 Fig) and subjected to the above procedure.
All ITC experiments were performed on a TA Instruments low volume NanoITC with a 186uL reaction cell and a reference cell filled with degassed Milli-Q grade water. Reactions were run in a buffer containing 10mM Bis-Tris, pH 6.5, 100 mM NaCl. The reservoir solution was filled with protein solution and continuously stirred while Chitin hexasaccharide solutions titrated in 2.5μL aliquots for 19 injections, with an initial 1μL injection, for a total injection volume of 48.5μL. The carbohydrate solutions were made by dissolving the dry powder in buffer to a concentration of 20mM (confirmed using methods described above) and then diluted to the working concentration using the final buffer exchange flow through to match the buffers as closely as possible. The integrated heats, after correction for the heat of dilution were analyzed using the NanoAnalyze software from […]. An individual binding site model was used to fit the binding isotherm. All experiments were replicated a minimum of three times.

[2] = test system: germlings of Trichoderma viride; assay: In vitro protection assay of T. viride germlings against chitinases; format: cell-based; conditions: 5 μM protein with chitinases and β-1,3-glucanases, 6–8 h
Method: The ability of the WT-CfAvr4 and of ChBD mutants to protect against chitinases was evaluated in in vitro protection assays conducted as described before. Briefly, spores of T. viride (3∙10^3) were pre-germinated overnight at room temperature in 100 μl of half-strength PDB medium in 96 well plates. The following day, 5 μM of WT-CfAvr4 or ChBD mutants were mixed with 7.5 units of Zymolyase (Zymo Research cat. no. E1004) and 0.2 units of bacterial chitinases (Sigma-Aldrich cat. no. C6137) and the mixture was added to the microtitre plate wells containing the pre-germinated spores in a final volume of 150 μl. Plates were incubated at 25°C for 6–8 h before evaluating under the microscope fungal growth and the ability of the proteins to provide protection against chitinases. Zymolase has β-1,3 glucanase and β-1,3-glucan laminaripentaohydrolase activity and is added to the mixture in order to remove the surface glucans from the fungal cell wall and thus expose the underlying chitin layer.

Cf-4 immune receptor = assay: Pure protein infiltrations into tomato leaves of cv Purdue 135 (+ Cf-4), hypersensitive response; format: in vivo; conditions: 5 dpi
Description: Tomato seeds were obtained from the Tomato Genetic Resource Center (TGRC) at UC Davis. WT-CfAvr4 and mutants thereof with single point mutations at selected amino acids were produced and purified from E. coli Rosetta-gami B cells as description above. […]

Cf-4 = assay: Agrobacterium tumefaciens transient transformation assay (ATTA): co-expression with Cf-4 in Nicotiana benthamiana leaves; format: in vivo; conditions: N. benthamiana, three cell density ratios 0.5:1, 1:1, 2:1
Method: The Agrobacterium tumefaciens transient transformation assay (ATTA) was used for the transient co-expression into leaves of Nicotiana benthamiana of Cf-4 with the WT-CfAvr4 and the mutants thereof tested in this study. Briefly, N. benthamiana plants were grown in a growth chamber with 16 h of artificial light and 70% humidity, at 25°C for 4 weeks. The true mature form of the WT-CfAvr4 (i.e. between Lys30-Gln115) and of the mutants thereof were singly cloned into the binary expression vector pICH47742 downstream of the PR1A signal sequence of Nicotiana tabacum for targeted secretion into the apoplast, and under the control of CaMV 35S promoter and NOS terminator. The tomato Cf-4 was cloned into pMOG800 as descripted before. Binary vector plasmids were transformed into A. tumefaciens strain GV3101 by electroporation. For the ATTA assay, agrobacteria transformed with pMOG800:Cf-4 was grown in 10mL LB-mannitol medium (LB medium with 10 g/L mannitol) amended with 50 μg/mL kanamycin and 25 μg/mL rifampicin, whereas agrobacteria transformed with pICH47742:WT-CfAvr4 or pICH4774:CfAvr4-mutants were grown in LB-mannitol amended with 100 μg/mL carbenicillin and 25 μg/mL rifampicin. All cultures were incubated at 28°C for 2 days, after which period they were pelleted at 2800g for 15 min, re-suspended in MMAi medium (5 g/L Murashige and Skoog basal salts, 20 g/L sucrose, 10 mM MES, and […]) at an optical cell density (A600) of 2.0, and further incubated for 2–4 h at room temperature. Agroinfiltrations were performed by mixing agrobacteria containing pMOG800:Cf-4 with agrobacteria containing pICH47742_WT-CfAvr4 or pICH47742:CfAvr4-mutants at three different ratios of optical cell densities, i.e. A6000.5:A6001.0, A6000.5:A6000.5, and A6000.5:A6000.25 of. The mixture of agrobacteria was infiltrated into the leaves of N. benthamiana plants using a 1 mL syringe and the induction of an HR in the infiltrated leaf sectors was evaluated at 5 days post-infiltrations. Control infiltrations were made using only the pMOG800:Cf-4 transformed agrobacteria and the agrobacteria containing pICH47742:CfAvr4 or the mutants thereof without mixing the two cultures, at cell densities of A6000.25, A6000.5, and A6001.0.

subtilisin = assay: Subtilisin treatment (resistance against proteolytic degradation); format: in vitro ADME; parameters: key to Stability (Subtilisin assay): S: stable; PU: partially unstable; conditions: for Stability (Subtilisin assay): 500 ng/μL subtilisin, 30 min, room temperature; for susceptibility to proteolytic degradation by subtilisin: 500 ng/μl subtilisin, band of mature CfAvr4 on SDS-PAGE
Method: The WT-CfAvr4 and selected mutants thereof were exposed to the non-specific protease subtilisin in order to determine their resistance against proteolytic degradation. Treatments with subtilisin were made as previously described with minor modifications. Briefly, 40 μM of the E. coli-produced CfAvr4 and the selected CfAvr4 mutants were mixed with 10 mM of calcium chloride and 500 ng/μL of subtilisin (Sigma-Aldrich) in a total volume of 15 μL. Samples were incubated for 30 min at room temperature, after which period they were denatured by mixing with 10 mM PMSF and SDS-PAGE loading buffer, and heating at 98°C for 10 min. Digestion products were visualized on an SDS-PAGE after staining with Coomassie blue.

Molecule	effect of the mutation on binding to (GlcNAc)6 [1]	protection of fungal hyphae against chitinases, fungal growth [2]	Cf-4-mediated HR after protein infiltration (Cf-4 immune receptor; 5 μg/ml)	Cf-4-mediated HR after protein infiltration (Cf-4 immune receptor; 10 μg/ml)	Cf-4-mediated HR after protein infiltration (Cf-4 immune receptor; both 5 μg/ml and 10 μg/ml)	HR on transient co-expression with Cf-4 (Cf-4)	Stability (Subtilisin assay) (subtilisin)	susceptibility to proteolytic degradation by subtilisin (subtilisin)	increase in the Kd relative to WT-CfAvr4 [1]
D102A (protein, left off: 6x His (two), N-terminal, state not stated) KAPKTQPYNPCKPQEVIDTKCMGPKDCLYPNPDSCTTYIQCVPLDEVGNAKPVVKPCPKGLQWNDNVGKKWCAYPNLSTCPVKTPQ	abolished all detectable binding	essentially failed to protect the fungal hyphae against chitinases; also recorded: fail to protect the fungal hyphae	weak HR response	elicited an HR	only partially trigger an HR	strong and similar in intensity HR	PU	vulnerable to proteolytic degradation; also recorded: decreased intensity of this band	
N95A (protein, left off: 6x His (two), N-terminal, state not stated) KAPKTQPYNPCKPQEVIDTKCMGPKDCLYPNPDSCTTYIQCVPLDEVGNAKPVVKPCPKGLQWNDAVGKKWCDYPNLSTCPVKTPQ					strong and equal in intensity HR; also recorded: strong and equally in intensity necrosis	strong and similar in intensity HR			three
M51A (protein, left off: 6x His (two), N-terminal, state not stated) KAPKTQPYNPCKPQEVIDTKCAGPKDCLYPNPDSCTTYIQCVPLDEVGNAKPVVKPCPKGLQWNDNVGKKWCDYPNLSTCPVKTPQ	did not affect the Kd substantially				strong and equal in intensity HR; also recorded: strong and equally in intensity necrosis	strong and similar in intensity HR			
P53A (protein, left off: 6x His (two), N-terminal, state not stated) KAPKTQPYNPCKPQEVIDTKCMGAKDCLYPNPDSCTTYIQCVPLDEVGNAKPVVKPCPKGLQWNDNVGKKWCDYPNLSTCPVKTPQ	did not affect the Kd substantially				strong and equal in intensity HR; also recorded: strong and equally in intensity necrosis	strong and similar in intensity HR			
Y103F (protein, left off: 6x His (two), N-terminal, state not stated) KAPKTQPYNPCKPQEVIDTKCMGPKDCLYPNPDSCTTYIQCVPLDEVGNAKPVVKPCPKGLQWNDNVGKKWCDFPNLSTCPVKTPQ	did not affect the Kd substantially				strong and equal in intensity HR; also recorded: strong and equally in intensity necrosis	strong and similar in intensity HR			
N93A (protein, left off: 6x His (two), N-terminal, state not stated) KAPKTQPYNPCKPQEVIDTKCMGPKDCLYPNPDSCTTYIQCVPLDEVGNAKPVVKPCPKGLQWADNVGKKWCDYPNLSTCPVKTPQ					failed to elicit an HR; also recorded: do not; also recorded: did not elicit an HR	strong and similar in intensity HR	PU	more susceptible to degradation; also recorded: almost complete disappearance of the band	six
Y67F (protein, left off: 6x His (two), N-terminal, state not stated) KAPKTQPYNPCKPQEVIDTKCMGPKDCLYPNPDSCTTFIQCVPLDEVGNAKPVVKPCPKGLQWNDNVGKKWCDYPNLSTCPVKTPQ	did not affect the Kd substantially				strong and equal in intensity HR; also recorded: strong and equally in intensity necrosis	strong and similar in intensity HR			
P87A (protein, left off: 6x His (two), N-terminal, state not stated) KAPKTQPYNPCKPQEVIDTKCMGPKDCLYPNPDSCTTYIQCVPLDEVGNAKPVVKPCAKGLQWNDNVGKKWCDYPNLSTCPVKTPQ	did not affect the Kd substantially; also recorded: does not have an effect on the binding thermodynamics				strong and equal in intensity HR; also recorded: strong and equally in intensity necrosis	strong and similar in intensity HR			
D94A (protein, left off: 6x His (two), N-terminal, state not stated) KAPKTQPYNPCKPQEVIDTKCMGPKDCLYPNPDSCTTYIQCVPLDEVGNAKPVVKPCPKGLQWNANVGKKWCDYPNLSTCPVKTPQ					failed to elicit an HR; also recorded: do not; also recorded: did not elicit an HR	strong and similar in intensity HR	PU	more susceptible to degradation; also recorded: almost complete disappearance of the band	five
